Data set [1] deals with T1, Lrp (Dickeya oryzae EC1, UniProt A0AB39ITC9 1-164).
T1 sequence: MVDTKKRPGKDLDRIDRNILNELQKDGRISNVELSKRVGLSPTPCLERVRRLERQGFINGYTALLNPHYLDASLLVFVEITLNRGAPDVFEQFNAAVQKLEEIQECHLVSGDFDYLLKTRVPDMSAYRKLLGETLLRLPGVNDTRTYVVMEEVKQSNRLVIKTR
The experiment in a line: EMSA. The settings on record: protein: recombinant; tags: GST tag removed with PreScission protease (pGEX-6P-1, BamHI/EcoRI-site primers; N-terminal vector residues may remain); chain copies: 2. (In general: Mobility shift assays separate free from complexed probe on a gel.)

In data set [2] the target is T1, Lrp. The experiment in a line: EMSA; 1 uM Lrp, 20 fmol probe. The settings on record: protein: recombinant; tags: GST tag removed with PreScission protease (pGEX-6P-1, BamHI/EcoRI-site primers; N-terminal vector residues may remain); chain copies: 2; label: biotin.

B1: PzmsA(24)PM (dsDNA)
DNA 1: GTGTGAAAAGAGTGAGAGACCACG
DNA 2: CGTGGTCTCTCACTCTTTTCACAC
As for B1, the binding result with Lrp [1] is listed as “no binding”.

B2: PzmsA(24) (dsDNA)
DNA 1: GTGTAATTATGGGCGTGCTCCGGG
DNA 2: CCCGGAGCACGCCCATAATTACAC
Consider B2, for which the binding result in the data set with Lrp [2] is “binds”.

The record behind these values is article PMC12145271, “A Lrp/AsnC Family Transcriptional Regulator Lrp Is Essential for the Pathogenicity of Dickeya oryzae”.
